Source: IntAct's records for PubMed 25201882

Columns and labels:
sc16a_human SEC16A = sc16a_human SEC16A (UniProt O15027)
sc16a_mouse Sec16a = sc16a_mouse Sec16a (UniProt E9QAT4)
UniProt E9QAT4, sequence (E9QAT4 whole entry): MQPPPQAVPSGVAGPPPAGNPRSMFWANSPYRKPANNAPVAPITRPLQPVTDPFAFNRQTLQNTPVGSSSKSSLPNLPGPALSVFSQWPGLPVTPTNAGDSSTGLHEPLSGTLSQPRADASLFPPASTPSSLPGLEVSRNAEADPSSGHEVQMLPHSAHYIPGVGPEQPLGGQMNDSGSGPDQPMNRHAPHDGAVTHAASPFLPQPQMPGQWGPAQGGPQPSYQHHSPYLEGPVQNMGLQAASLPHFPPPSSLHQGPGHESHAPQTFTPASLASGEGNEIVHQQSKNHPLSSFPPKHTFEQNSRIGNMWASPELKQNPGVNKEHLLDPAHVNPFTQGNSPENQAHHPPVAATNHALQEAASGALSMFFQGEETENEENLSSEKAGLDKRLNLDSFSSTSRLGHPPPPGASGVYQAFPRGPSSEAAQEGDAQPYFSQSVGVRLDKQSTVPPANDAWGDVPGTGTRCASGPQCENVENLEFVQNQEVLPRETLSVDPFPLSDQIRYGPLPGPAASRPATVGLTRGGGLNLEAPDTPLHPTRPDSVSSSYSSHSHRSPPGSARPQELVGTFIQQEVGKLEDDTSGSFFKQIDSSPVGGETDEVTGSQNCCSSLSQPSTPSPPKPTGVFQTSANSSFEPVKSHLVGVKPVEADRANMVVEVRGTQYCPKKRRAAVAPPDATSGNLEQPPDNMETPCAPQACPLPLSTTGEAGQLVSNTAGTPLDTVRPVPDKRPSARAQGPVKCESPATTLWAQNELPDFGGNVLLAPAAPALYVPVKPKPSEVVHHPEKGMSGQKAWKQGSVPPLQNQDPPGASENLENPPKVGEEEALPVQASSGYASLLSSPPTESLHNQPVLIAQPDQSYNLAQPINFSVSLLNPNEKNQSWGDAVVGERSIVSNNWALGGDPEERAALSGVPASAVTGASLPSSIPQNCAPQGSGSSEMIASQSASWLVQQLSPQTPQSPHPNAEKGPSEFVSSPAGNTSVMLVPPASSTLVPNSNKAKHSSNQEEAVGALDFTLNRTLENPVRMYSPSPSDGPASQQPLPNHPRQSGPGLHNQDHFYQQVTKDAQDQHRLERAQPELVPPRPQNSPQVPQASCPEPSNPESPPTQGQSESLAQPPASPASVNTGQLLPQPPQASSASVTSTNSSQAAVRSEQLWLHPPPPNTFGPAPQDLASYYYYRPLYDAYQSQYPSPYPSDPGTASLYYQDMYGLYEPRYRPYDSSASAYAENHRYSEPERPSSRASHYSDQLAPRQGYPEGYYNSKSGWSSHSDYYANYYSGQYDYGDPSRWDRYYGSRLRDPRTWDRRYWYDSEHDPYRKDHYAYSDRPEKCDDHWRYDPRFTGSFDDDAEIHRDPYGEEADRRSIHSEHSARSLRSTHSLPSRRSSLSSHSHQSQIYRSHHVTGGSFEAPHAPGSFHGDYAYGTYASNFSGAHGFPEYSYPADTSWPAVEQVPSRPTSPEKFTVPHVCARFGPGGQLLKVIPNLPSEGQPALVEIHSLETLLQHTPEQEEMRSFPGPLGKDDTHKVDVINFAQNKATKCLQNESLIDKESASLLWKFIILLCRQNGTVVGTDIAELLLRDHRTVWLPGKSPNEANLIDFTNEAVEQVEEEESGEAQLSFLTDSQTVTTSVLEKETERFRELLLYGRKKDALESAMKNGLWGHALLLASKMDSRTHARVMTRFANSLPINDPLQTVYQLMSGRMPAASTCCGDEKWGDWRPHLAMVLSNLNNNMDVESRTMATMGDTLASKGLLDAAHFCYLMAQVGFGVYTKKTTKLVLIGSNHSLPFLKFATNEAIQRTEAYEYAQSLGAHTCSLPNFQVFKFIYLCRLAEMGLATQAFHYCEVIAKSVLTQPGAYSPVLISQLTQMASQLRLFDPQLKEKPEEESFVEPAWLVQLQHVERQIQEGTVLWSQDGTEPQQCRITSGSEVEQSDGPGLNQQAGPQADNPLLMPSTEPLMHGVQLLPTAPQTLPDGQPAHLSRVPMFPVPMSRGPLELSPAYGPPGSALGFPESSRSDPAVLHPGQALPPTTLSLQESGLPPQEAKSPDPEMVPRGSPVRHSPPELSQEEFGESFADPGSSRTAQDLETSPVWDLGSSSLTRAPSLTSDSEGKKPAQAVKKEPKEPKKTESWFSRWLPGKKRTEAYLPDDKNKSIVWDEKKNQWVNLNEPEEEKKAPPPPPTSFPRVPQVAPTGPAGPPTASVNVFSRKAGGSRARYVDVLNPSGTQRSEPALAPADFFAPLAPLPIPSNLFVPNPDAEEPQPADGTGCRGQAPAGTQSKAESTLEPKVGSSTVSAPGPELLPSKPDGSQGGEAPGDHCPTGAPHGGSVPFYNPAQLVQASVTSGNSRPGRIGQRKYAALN

UniProt O15027, sequence (O15027 whole entry): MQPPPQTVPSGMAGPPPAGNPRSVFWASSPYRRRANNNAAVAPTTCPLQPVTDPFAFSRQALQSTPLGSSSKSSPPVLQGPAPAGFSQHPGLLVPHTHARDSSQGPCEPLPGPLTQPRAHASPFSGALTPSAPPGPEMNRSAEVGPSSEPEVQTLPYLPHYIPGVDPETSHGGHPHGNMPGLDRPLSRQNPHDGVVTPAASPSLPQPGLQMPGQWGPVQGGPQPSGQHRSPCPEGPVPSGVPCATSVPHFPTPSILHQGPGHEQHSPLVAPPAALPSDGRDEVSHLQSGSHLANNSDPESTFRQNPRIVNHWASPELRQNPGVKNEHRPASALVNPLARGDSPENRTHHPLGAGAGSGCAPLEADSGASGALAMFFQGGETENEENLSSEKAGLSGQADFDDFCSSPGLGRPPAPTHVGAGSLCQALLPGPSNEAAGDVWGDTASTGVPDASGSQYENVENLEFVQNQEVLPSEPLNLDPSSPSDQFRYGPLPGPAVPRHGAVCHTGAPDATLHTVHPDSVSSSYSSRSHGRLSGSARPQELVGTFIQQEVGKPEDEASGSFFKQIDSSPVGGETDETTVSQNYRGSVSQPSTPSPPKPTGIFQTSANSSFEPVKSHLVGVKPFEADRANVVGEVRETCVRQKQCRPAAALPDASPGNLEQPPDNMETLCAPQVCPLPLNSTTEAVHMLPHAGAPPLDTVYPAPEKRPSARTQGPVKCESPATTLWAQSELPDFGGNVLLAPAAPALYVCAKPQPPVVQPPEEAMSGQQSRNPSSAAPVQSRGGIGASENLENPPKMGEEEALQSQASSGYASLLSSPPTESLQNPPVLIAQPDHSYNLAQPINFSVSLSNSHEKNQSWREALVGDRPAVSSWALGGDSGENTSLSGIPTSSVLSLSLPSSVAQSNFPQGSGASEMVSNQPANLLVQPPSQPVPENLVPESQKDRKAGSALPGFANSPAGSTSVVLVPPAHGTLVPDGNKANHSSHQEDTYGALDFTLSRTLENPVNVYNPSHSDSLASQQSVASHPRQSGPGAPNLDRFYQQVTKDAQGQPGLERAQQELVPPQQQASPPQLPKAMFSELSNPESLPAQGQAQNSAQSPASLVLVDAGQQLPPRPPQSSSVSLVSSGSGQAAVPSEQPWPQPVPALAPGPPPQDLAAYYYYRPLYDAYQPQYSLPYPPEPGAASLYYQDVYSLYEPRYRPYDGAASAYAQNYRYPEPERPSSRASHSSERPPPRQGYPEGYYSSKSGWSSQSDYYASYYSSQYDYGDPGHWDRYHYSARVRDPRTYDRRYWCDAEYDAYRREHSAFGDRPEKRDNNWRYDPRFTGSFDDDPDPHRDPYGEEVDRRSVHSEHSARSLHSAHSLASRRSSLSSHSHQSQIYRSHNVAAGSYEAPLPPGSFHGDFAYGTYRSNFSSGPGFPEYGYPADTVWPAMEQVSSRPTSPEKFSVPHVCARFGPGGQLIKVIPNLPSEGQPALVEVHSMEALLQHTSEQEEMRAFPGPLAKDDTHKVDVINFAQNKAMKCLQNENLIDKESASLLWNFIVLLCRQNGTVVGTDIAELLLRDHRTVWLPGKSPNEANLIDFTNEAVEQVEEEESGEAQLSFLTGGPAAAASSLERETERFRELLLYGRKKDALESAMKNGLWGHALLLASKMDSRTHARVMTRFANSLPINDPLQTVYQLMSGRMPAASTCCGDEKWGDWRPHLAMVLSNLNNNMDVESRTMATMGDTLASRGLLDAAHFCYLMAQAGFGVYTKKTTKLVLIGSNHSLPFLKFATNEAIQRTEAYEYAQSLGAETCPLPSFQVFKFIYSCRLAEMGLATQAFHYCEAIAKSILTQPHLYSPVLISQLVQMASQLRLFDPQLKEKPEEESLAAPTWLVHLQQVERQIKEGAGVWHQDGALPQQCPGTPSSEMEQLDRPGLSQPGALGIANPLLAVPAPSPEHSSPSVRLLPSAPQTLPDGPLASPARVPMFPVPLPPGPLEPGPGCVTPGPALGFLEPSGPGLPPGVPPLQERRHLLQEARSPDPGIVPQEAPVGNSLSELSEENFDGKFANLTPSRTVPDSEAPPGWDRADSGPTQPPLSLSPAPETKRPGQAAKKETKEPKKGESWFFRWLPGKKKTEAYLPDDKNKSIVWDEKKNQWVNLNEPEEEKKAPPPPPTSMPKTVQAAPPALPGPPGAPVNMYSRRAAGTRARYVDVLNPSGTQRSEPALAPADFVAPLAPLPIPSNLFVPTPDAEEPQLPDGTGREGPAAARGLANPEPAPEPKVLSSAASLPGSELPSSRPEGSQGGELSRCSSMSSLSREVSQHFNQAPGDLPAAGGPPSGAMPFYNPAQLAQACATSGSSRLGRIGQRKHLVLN

Row | Substance | effect of a mutation on the interaction (sc16a_human SEC16A) | effect of a mutation on the interaction (sc16a_mouse Sec16a)
1 | Leucine-rich repeat serine/threonine-protein kinase 2 (Homo sapiens), Q5S007 K1347A | disrupting interaction strength | disrupting interaction strength
2 | Leucine-rich repeat serine/threonine-protein kinase 2 (Homo sapiens), Q5S007 R1441C | decreasing interaction strength | disrupting interaction strength
